Measured values from US20030157712A1 (VANDERBILT UNIVERSITY, published 2003).

Biological target: T1, endogenous EphB2 receptor of HRMEC (human, UniProt P29323 19-1055)
T1 construct: whole, on cells; also called Nuk
T1 sequence (looked up): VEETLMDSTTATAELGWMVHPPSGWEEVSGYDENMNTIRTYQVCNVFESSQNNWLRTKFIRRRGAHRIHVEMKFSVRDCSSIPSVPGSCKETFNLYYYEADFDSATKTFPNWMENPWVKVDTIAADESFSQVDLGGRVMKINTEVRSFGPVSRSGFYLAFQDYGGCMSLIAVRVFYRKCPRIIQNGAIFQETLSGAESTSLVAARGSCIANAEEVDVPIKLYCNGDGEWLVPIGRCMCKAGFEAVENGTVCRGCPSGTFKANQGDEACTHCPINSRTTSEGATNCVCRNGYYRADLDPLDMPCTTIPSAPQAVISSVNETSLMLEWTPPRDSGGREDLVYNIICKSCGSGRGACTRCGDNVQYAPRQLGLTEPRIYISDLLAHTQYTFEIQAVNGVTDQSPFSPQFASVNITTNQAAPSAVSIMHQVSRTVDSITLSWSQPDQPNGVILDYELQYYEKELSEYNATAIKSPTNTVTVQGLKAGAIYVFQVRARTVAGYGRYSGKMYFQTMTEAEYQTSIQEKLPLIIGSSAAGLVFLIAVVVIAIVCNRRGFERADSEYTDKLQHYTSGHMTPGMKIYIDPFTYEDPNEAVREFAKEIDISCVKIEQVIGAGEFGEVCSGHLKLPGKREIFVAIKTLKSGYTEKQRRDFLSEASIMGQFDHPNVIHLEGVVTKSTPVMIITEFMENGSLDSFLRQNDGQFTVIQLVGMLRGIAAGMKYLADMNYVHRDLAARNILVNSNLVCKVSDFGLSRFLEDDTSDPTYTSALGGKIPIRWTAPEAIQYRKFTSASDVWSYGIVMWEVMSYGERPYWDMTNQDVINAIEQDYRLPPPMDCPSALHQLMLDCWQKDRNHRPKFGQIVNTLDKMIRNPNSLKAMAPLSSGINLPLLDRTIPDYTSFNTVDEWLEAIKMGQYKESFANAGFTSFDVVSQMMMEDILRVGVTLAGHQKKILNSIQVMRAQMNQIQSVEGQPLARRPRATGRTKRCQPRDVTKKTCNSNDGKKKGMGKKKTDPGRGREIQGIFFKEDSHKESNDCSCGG
Assay: co-immunoprecipitation from HRMEC stimulated with dimeric or multimeric ephrin-B1/Fc, immunoblot
Experimental: Ligand stimulation and immunoprecipitation of endogenous EphB receptors. Primary HRMEC were used at passages 3-6, as described (12). […] Ninety min prior to ligand stimulation, cells (2×10⁵cells/60 mm dish) were plated on Matrigel-(Collaborative Biomedical Products, Becton Dickinson, Bedford, Mass., as recommended) or fibronectin-coated (29) dishes. […] Cells were incubated with agonists at 37° C. for 10 min, or as described in the figure legends. Immunoprecipitations were conducted on either cell lysates (P19) or on Triticum vulgaris lectin affinity purified fractions of HRMEC (15) (needed to reduce the background from Matrigel). Precipitated proteins were analyzed by immunoblot (15).

binding result: no binding
B1: endogenous EphB1 receptor of human endothelial cells (HRMEC; HUVEC) (receptor, UniProt P54762 18-984, looked up)
chain: MEETLMDTRTATAELGWTANPASGWEEVSGYDENLNTIRTYQVCNVFEPNQNNWLLTTFINRRGAHRIYTEMRFTVRDCSSLPNVPGSCKETFNLYYYETDSVIATKKSAFWSEAPYLKVDTIAADESFSQVDFGGRLMKVNTEVRSFGPLTRNGFYLAFQDYGACMSLLSVRVFFKKCPSIVQNFAVFPETMTGAESTSLVIARGTCIPNAEEVDVPIKLYCNGDGEWMVPIGRCTCKPGYEPENSVACKACPAGTFKASQEAEGCSHCPSNSRSPAEASPICTCRTGYYRADFDPPEVACTSVPSGPRNVISIVNETSIILEWHPPRETGGRDDVTYNIICKKCRADRRSCSRCDDNVEFVPRQLGLTECRVSISSLWAHTPYTFDIQAINGVSSKSPFPPQHVSVNITTNQAAPSTVPIMHQVSATMRSITLSWPQPEQPNGIILDYEIRYYEKEHNEFNSSMARSQTNTARIDGLRPGMVYVVQVRARTVAGYGKFSGKMCFQTLTDDDYKSELREQLPLIAGSAAAGVVFVVSLVAISIVCSRKRAYSKEAVYSDKLQHYSTGRGSPGMKIYIDPFTYEDPNEAVREFAKEIDVSFVKIEEVIGAGEFGEVYKGRLKLPGKREIYVAIKTLKAGYSEKQRRDFLSEASIMGQFDHPNIIRLEGVVTKSRPVMIITEFMENGALDSFLRQNDGQFTVIQLVGMLRGIAAGMKYLAEMNYVHRDLAARNILVNSNLVCKVSDFGLSRYLQDDTSDPTYTSSLGGKIPVRWTAPEAIAYRKFTSASDVWSYGIVMWEVMSFGERPYWDMSNQDVINAIEQDYRLPPPMDCPAALHQLMLDCWQKDRNSRPRFAEIVNTLDKMIRNPASLKTVATITAVPSQPLLDRSIPDFTAFTTVDDWLSAIKMVQYRDSFLTAGFTSLQLVTQMTSEDLLRIGITLAGHQKKILNSIHSMRVQISQSPTAMA
notes: whole, on cells; In the co-precipitation entries the receptor was tyrosine phosphorylated after stimulation of the cells; also called ELK
